In patent US20250011428A1 (Novartis, published 2025):

Legend:
[1] = molecular target: T1, recombinant human hFcγR1a (human, UniProt P12314 16-288, limits assumed); test: SPR Biacore T200; IgG amine-coupled on CM5, receptor as analyte; response normalized to parental (=100);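 also: measured at room temperature in pH 7.6 phosphate buffer with Tween 20, double-referenced sensorgrams, maximum response taken as binding capacity at saturation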
T1 construct: recombinant, analyte in SPR; also called FcγRI
T1 sequence (P12314 16-288 limits assumed): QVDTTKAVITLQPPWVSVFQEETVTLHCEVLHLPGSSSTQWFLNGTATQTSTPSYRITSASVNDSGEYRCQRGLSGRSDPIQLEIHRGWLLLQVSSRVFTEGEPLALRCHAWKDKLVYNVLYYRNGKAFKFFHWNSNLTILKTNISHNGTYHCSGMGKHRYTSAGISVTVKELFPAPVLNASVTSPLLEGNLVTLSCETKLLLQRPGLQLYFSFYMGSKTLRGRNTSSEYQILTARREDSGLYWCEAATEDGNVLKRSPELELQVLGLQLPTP
Protocol: (§1) Kinetics and binding capacity were measured on a BIAcore® T200 instrument (GE Healthcare, Glattbrugg, Switzerland) at room temperature, with proteins diluted in running buffer 10 mM NaP, 150 mM NaCl, 0.05% Tween 20, pH7.6. A CM5 sensor chip (Sensor Chip SA, GE Healthcare Life Sciences) was used to immobilized engineered immunoglobulins by amine coupling. Then, recombinant human hFcγR1a, or recombinant human hFcγR3a (F158V), or recombinant human hFcRn, or hC1q was used as the analyte.
(§2) Binding data were acquired by subsequent injection of analyte dilution series on the reference and measuring flow cells. Zero concentration samples (running buffer only) were included to allow double referencing during data evaluation. For data evaluation, doubled referenced sensorgrams were analyzed and the maximum response reached during the experiment was monitored. Maximum response describes the binding capacity of the surface in terms of the response at saturation. Finally, measured maximum responses were normalized to the one measured using parental immunoglobulin (not engineered).

[2] = molecular target: T2, recombinant human hFcγR3a (F158V) (human, UniProt P08637 17-208); test: as above
T2 construct: also called FcγRIII
T2 sequence (P08637 17-208 F176V): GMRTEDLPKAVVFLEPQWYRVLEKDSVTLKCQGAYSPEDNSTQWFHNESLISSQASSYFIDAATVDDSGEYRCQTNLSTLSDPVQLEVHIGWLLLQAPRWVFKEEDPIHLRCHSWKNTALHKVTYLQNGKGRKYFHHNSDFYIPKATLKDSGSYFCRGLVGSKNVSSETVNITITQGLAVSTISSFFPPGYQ
Protocol: as §1, §2

recombinant human hFcRn = molecular target: T3, recombinant human hFcRn (human, UniProt P55899 24-297; P61769 21-119); test: SPR Biacore T200; IgG amine-coupled on CM5, hFcRn as analyte; response normalized to parental (=100)
T3 construct: FcRn is normally a heterodimer with it
T3 sequence (P55899 24-297 limits assumed, chain 1 of 2): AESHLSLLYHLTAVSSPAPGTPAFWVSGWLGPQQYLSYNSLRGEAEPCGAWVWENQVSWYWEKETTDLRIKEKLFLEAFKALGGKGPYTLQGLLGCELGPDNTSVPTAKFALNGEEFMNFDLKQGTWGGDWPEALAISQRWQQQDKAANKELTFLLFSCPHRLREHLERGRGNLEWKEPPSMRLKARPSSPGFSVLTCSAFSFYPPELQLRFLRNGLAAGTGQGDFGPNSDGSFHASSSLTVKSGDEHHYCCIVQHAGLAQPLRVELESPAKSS
T3 sequence (P61769 21-119 limits assumed, chain 2 of 2): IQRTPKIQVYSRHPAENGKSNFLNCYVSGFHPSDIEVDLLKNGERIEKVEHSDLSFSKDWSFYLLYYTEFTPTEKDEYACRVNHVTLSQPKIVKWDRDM
Protocol: as §1, §2

hCD3epsilon-FC antigen [3] = molecular target: T4, hCD3epsilon-FC antigen (human, UniProt P07766 23-126); test: SPR Biacore T200; hCD3epsilon-FC amine-coupled on CM5, IgG as analyte; 1:1 model, apparent KD (bivalent analyte)
T4 construct: immobilized by amine coupling on CM5; also called human CD3epsilon
T4 sequence (P07766 23-126 limits assumed): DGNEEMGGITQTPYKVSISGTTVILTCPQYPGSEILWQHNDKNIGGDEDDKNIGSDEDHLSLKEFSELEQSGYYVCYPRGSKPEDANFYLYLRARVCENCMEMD
Protocol: A CM5 sensor chip (Sensor Chip SA, GE Healthcare Life Sciences) was used to immobilize hCD3epsilon-FC antigen by amine coupling. Then, engineered anti-CD3 hIgG1 were used as the analyte.
Binding data were acquired by subsequent injection of analyte dilution series on the reference and measuring flow cells. Zero concentration samples (running buffer only) were included to allow double referencing during data evaluation. For data evaluation, doubled referenced sensorgrams were analyzed by applying a 1:1 binding model analysis to generate the equilibrium dissociation constant (KD). Binding constant described Table 7 are considered as apparent KD since immunoglobulins used as analyte are bivalent for the immobilized antigen. In addition, maximum response reached during the experiment was monitored. Maximum response describes the binding capacity of the surface in terms of the response at saturation. Finally, measured maximum responses were normalized to the one measured using parental immunoglobulin (not engineered).

hCD3epsilon-FC antigen [4] = molecular target: T4, hCD3epsilon-FC antigen; test: SPR Biacore T200; hCD3epsilon-FC amine-coupled on CM5, IgG as analyte; parameters: unit not given here
hC1q [5] = molecular target: T5, hC1q (human, UniProt P02745 23-245; P02746 28-253; P02747 29-245); test: SPR Biacore T200; IgG amine-coupled on CM5, hC1q as analyte; response normalized to parental (=100)
T5 sequence (P02745 23-245 limits assumed, chain 1 of 3): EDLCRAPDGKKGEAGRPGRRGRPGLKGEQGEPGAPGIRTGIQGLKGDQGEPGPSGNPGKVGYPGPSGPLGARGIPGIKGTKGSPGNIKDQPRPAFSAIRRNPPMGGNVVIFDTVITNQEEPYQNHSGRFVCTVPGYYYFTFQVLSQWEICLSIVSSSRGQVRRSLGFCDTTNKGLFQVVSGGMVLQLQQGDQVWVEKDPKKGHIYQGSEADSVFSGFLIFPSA
T5 sequence (P02746 28-253 limits assumed, chain 2 of 3): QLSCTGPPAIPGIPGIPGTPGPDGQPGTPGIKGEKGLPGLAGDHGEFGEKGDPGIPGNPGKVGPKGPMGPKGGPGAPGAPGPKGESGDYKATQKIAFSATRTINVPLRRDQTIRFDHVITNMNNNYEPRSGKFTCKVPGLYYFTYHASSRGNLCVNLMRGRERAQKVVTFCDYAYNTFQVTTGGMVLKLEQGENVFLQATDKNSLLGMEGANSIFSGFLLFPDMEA
T5 sequence (P02747 29-245 limits assumed, chain 3 of 3): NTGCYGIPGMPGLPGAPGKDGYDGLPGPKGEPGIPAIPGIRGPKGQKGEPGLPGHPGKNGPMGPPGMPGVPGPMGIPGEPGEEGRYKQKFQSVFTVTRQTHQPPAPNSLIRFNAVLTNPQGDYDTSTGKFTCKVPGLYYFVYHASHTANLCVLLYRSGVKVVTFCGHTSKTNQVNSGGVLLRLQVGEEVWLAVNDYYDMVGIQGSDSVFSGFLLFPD
Protocol: as §1, §2

hC1q [6] = molecular target: T5, hC1q; test: SPR max response, normalized to parental (=100)
Protocol: as §1, §2

[7] = molecular target: T2, recombinant human hFcγR3a (F158V); test: SPR max response, normalized to parental (=100)
Protocol: as §1, §2

Row | Binder | Maximum response at 100 nM hFcγR1a (RU) [1] | Maximum response at 300 nM hFcγR3a F158V (RU) [2] | Maximum response at 1840 nM hFcRn (RU) (recombinant human hFcRn) | Kd (hCD3epsilon-FC antigen [3]) | Maximum response at 125 nM hIgG1 (hCD3epsilon-FC antigen [4]) | Maximum response at 20 nM hC1q (RU) (hC1q [5]) | binding result (hC1q [6]) | binding result [7]
1 | CD3_WT (antibody, human IgG1, lambda, hIgG1, no Fc mutation; produced in HEK-293T-17SF; also called parental anti-CD3 IgG1; anti-CD3 monospecific hIgG1) heavy: not shown light: QAVVTQEPSLTVSPGGTVTLTCRSSTGAVTTSNYANWVQQKPGQAPRGLIGGTNKRAPWTPARFSGSLLGDKAALTLSGAQPEDEAEYFCALWYSNLWVFGGGTKLTVLGQPKAAPSVTLFPPSSEELQANKATLVCLISDFYPGAVTVAWKADSSPVKAGVETTTPSKQSNNKYAASSYLSLTPEQWKSHRSYSCQVTHEGSTVEKTVAPTECS | 100 RU | 100 RU | 100 RU | 2.32 nM | 392 | 100 RU | – | –
2 | CD3_7 (antibody, human IgG1, lambda, hIgG1) heavy: not shown light: QAVVTQEPSLTVSPGGTVTLTCRSSTGAVTTSNYANWVQQKPGQAPRGLIGGTNKRAPWTPARFSGSLLGDKAALTLSGAQPEDEAEYFCALWYSNLWVFGGGTKLTVLGQPKAAPSVTLFPPSSEELQANKATLVCLISDFYPGAVTVAWKADSSPVKAGVETTTPSKQSNNKYAASSYLSLTPEQWKSHRSYSCQVTHEGSTVEKTVAPTECS | 21 RU | 5 RU | 80 RU | 2.27 nM | 367 | 2 RU | – | –
3 | CD3_5 (antibody, human IgG1, lambda, hIgG1) heavy: EVQLVESGGGLVQPGGSLKLSCAASGFTFNTYAMNWVRQASGKGLEWVGRIRSKYNNYATYYADSVKDRFTISRDDSKSTLYLQMNSLKTEDTAVYYCVRHGNFGNSYVSWFAYWGQGTLVTVSSASTKGPSVFPLAPSSKSTSGGTAALGCLVKDYFPEPVTVSWNSGALTSGVHTFPAVLQSSGLYSLSSVVTVPSSSLGTQTYICNVNHKPSNTKVDKRVEPKSCDKTHTCPPCPAPELCCGPSVFLFPPKPKDTLMISRTPEVTCVVVDVSHEDPEVKFNWYVDGVEVHNAKTKPREEQYCSCYRVVSVLTVLHQDWLNGKEYKCKVSNKALPAPIEKTISKAKGQPREPQVYTLPPSRDELTKNQVSLTCLVKGFYPSDIAVEWESNGQPENNYKTTPPVLDSDGSFFLYSKLTVDKSRWQQGNVFSCSVMHEALHNHYTQKSLSLSPGK light: QAVVTQEPSLTVSPGGTVTLTCRSSTGAVTTSNYANWVQQKPGQAPRGLIGGTNKRAPWTPARFSGSLLGDKAALTLSGAQPEDEAEYFCALWYSNLWVFGGGTKLTVLGQPKAAPSVTLFPPSSEELQANKATLVCLISDFYPGAVTVAWKADSSPVKAGVETTTPSKQSNNKYAASSYLSLTPEQWKSHRSYSCQVTHEGSTVEKTVAPTECS | 7 RU | 22 RU | – | 3.76 nM | 365 | – | no binding (tested: 20 nM hC1q) | –
4 | CD3_11 (antibody, human IgG1, lambda, hIgG1) heavy: not shown light: QAVVTQEPSLTVSPGGTVTLTCRSSTGAVTTSNYANWVQQKPGQAPRGLIGGTNKRAPWTPARFSGSLLGDKAALTLSGAQPEDEAEYFCALWYSNLWVFGGGTKLTVLGQPKAAPSVTLFPPSSEELQANKATLVCLISDFYPGAVTVAWKADSSPVKAGVETTTPSKQSNNKYAASSYLSLTPEQWKSHRSYSCQVTHEGSTVEKTVAPTECS | 19 RU | – | 92 RU | – | – | – | no binding (tested: 20 nM hC1q) | –
5 | CD3_10_YTE (antibody, human IgG1, lambda, hIgG1) heavy: EVQLVESGGGLVQPGGSLKLSCAASGFTFNTYAMNWVRQASGKGLEWVGRIRSKYNNYATYYADSVKDRFTISRDDSKSTLYLQMNSLKTEDTAVYYCVRHGNFGNSYVSWFAYWGQGTLVTVSSASTKGPSVFPLAPSSKSTSGGTAALGCLVKDYFPEPVTVSWNSGALTSGVHTFPAVLQSSGLYSLSSVVTVPSSSLGTQTYICNVNHKPSNTKVDKRVEPKSCDKTHTCPPCPAPELLGGPSVFLFPPKPKDTLYITREPEVTCVVVDVSHEDPEVKFNWYVDGVEVHNAKTKPREEQYNSCYRVVSVLTVLHQDWLNGKEYKCKVSNKALPAPIEKTISKAKGQPREPQVYTLPPSRDELTKNQVSLTCLVKGFYPSDIAVEWESNGQPENNYKTTPPVLDSDGSFFLYSKLTVDKSRWQQGNVFSCSVMHEALHNHYTQKSLSLSPGK light: QAVVTQEPSLTVSPGGTVTLTCRSSTGAVTTSNYANWVQQKPGQAPRGLIGGTNKRAPWTPARFSGSLLGDKAALTLSGAQPEDEAEYFCALWYSNLWVFGGGTKLTVLGQPKAAPSVTLFPPSSEELQANKATLVCLISDFYPGAVTVAWKADSSPVKAGVETTTPSKQSNNKYAASSYLSLTPEQWKSHRSYSCQVTHEGSTVEKTVAPTECS | – | – | 280 RU | – | – | – | no binding (tested: 20 nM hC1q) | –
6 | CD3_6 (antibody, human IgG1, lambda, hIgG1) heavy: not shown light: QAVVTQEPSLTVSPGGTVTLTCRSSTGAVTTSNYANWVQQKPGQAPRGLIGGTNKRAPWTPARFSGSLLGDKAALTLSGAQPEDEAEYFCALWYSNLWVFGGGTKLTVLGQPKAAPSVTLFPPSSEELQANKATLVCLISDFYPGAVTVAWKADSSPVKAGVETTTPSKQSNNKYAASSYLSLTPEQWKSHRSYSCQVTHEGSTVEKTVAPTECS | 13 RU | 17 RU | 136 RU | 2.38 nM | 338 | 33 RU | – | –
7 | CD3_8_YTE (antibody, human IgG1, lambda, hIgG1) heavy: EVQLVESGGGLVQPGGSLKLSCAASGFTFNTYAMNWVRQASGKGLEWVGRIRSKYNNYATYYADSVKDRFTISRDDSKSTLYLQMNSLKTEDTAVYYCVRHGNFGNSYVSWFAYWGQGTLVTVSSASTKGPSVFPLAPSSKSTSGGTAALGCLVKDYFPEPVTVSWNSGALTSGVHTFPAVLQSSGLYSLSSVVTVPSSSLGTQTYICNVNHKPSNTKVDKRVEPKSCDKTHTCPPCPAPELLCGPSVFLFPPKPKDTLYITREPEVTCVVVDVSHEDPEVKFNWYVDGVEVHNAKTKPREEQYNSTYRVVSVLTVLHQDWLNGKEYKCKVSNKALPAPIEKTISKAKGQPREPQVYTLPPSRDELTKNQVSLTCLVKGFYPSDIAVEWESNGQPENNYKTTPPVLDSDGSFFLYSKLTVDKSRWQQGNVFSCSVMHEALHNHYTQKSLSLSPGK light: QAVVTQEPSLTVSPGGTVTLTCRSSTGAVTTSNYANWVQQKPGQAPRGLIGGTNKRAPWTPARFSGSLLGDKAALTLSGAQPEDEAEYFCALWYSNLWVFGGGTKLTVLGQPKAAPSVTLFPPSSEELQANKATLVCLISDFYPGAVTVAWKADSSPVKAGVETTTPSKQSNNKYAASSYLSLTPEQWKSHRSYSCQVTHEGSTVEKTVAPTECS | 2 RU | – | 604 RU | – | – | – | no binding (tested: 20 nM hC1q) | –
8 | CD3_2_YTE (antibody, human IgG1, lambda, hIgG1) heavy: EVQLVESGGGLVQPGGSLKLSCAASGFTFNTYAMNWVRQASGKGLEWVGRIRSKYNNYATYYADSVKDRFTISRDDSKSTLYLQMNSLKTEDTAVYYCVRHGNFGNSYVSWFAYWGQGTLVTVSSASTKGPSVFPLAPSSKSTSGGTAALGCLVKDYFPEPVTVSWNSGALTSGVHTFPAVLQSSGLYSLSSVVTVPSSSLGTQTYICNVNHKPSNTKVDKRVEPKSCDKTHTCPPCPAPELCCHPSVFLFPPKPKDTLYITREPEVTCVVVGLRHEDPEVKFNWYVDGVEVHNAKTKPREEQYCGCYRVVSVLTVLHQDWLNGKEYKCKVSNKALPAPIEKTISKAKGQPREPQVYTLPPSRDELTKNQVSLTCLVKGFYPSDIAVEWESNGQPENNYKTTPPVLDSDGSFFLYSKLTVDKSRWQQGNVFSCSVMHEALHNHYTQKSLSLSPGK light: QAVVTQEPSLTVSPGGTVTLTCRSSTGAVTTSNYANWVQQKPGQAPRGLIGGTNKRAPWTPARFSGSLLGDKAALTLSGAQPEDEAEYFCALWYSNLWVFGGGTKLTVLGQPKAAPSVTLFPPSSEELQANKATLVCLISDFYPGAVTVAWKADSSPVKAGVETTTPSKQSNNKYAASSYLSLTPEQWKSHRSYSCQVTHEGSTVEKTVAPTECS | 3 RU | – | 340 RU | 2.3 nM | 371 | – | – | no binding (tested: 300 nM hFcγR3a F158V)
